# Laboratory results published in US20050287542.
# Substitutions are numbered along the chain they refer to.
# Assays:
# [1] = test system: p007 (Artificial Sequence); conditions: scale: fold average specificity ratio for hsCRE over any site in CT DNA
# [2] = molecular target: G56 (GCN4 bZIP element) (UniProt P03069); assay: EMSA
# [3] = test system: T1, PPBR4SR (PPBR4) (Artificial Sequence); assay: EMSA
# T1 sequence: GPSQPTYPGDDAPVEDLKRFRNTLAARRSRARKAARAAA
# [4] = test system: p007 (Artificial Sequence); assay: EMSA
# [5] = test system: T2, PPBR2SR (Artificial Sequence); assay: EMSA; conditions: physiological ionic strength, on ice
# T2 sequence: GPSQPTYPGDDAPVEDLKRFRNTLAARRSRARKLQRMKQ
# [6] = molecular target: G27 (isolated GCN4 basic region) (UniProt P03069); assay: EMSA
# [7] = test system: p016 (Artificial Sequence); assay: EMSA; conditions: 4 C
# [8] = test system: p012 (Artificial Sequence); assay: EMSA; conditions: 4 C
# [9] = test system: T3, PPBR4-deltaSR (Artificial Sequence); assay: EMSA; conditions: hydrophobic core disrupted; scale: kcal/mol less stable than PPBR4SR-hsCRE24
# T3 sequence: T1 sequence with A31L
# [10] = test system: p011 (Artificial Sequence); assay: EMSA; conditions: 4 C
# [11] = test system: PPBR4 on phage (Artificial Sequence); assay: pulldown; conditions: phage panning, PBS, 0.1% NP-40, 2.5 ug/ml poly-dIdC, 4 C
# [12] = test system: aPP (avian pancreatic polypeptide) (avian); assay: pulldown; conditions: phage panning, negative control; computed from the stated 10-fold
substance,measurement,setting,value
calf thymus DNA,binding signal,[1],4170
hsCEBP24,binding signal,"[2]; ddG -2.9 kcal/mol, scale: fold specificity ratio for hsCRE24 over hsCEBP24",180
same,binding signal,"[3]; ddG -4.4 kcal/mol, scale: fold specificity ratio for hsCRE24 over hsCEBP24",2600
hsCRE24,Kd,"[4]; 4 C, PBS-type buffer with 1 mM EDTA",0.023 nM
same,Kd,[4]; 25 C,1.6 nM
same,binding signal (fold preference over hsCEBP24),[2],180
same,Kd,"[3]; PPBR4, 4 C",1.9 nM
same,Kd,"[3]; physiological ionic strength, on ice",1.5 nM
same,Kd,[5],5 nM
same,Kd,[6]; 4 C,410 nM
same,binding signal,"[6]; lacks polyproline helix and turn, scale: kcal/mol less stable than PPBR4SR-hsCRE24",3.1
same,Kd,[7],0.3 nM
same,Kd,[8],2.5 nM
same,binding signal,[9],3.2
same,Kd,[10],1.5 nM
hsCRE24 on beads,binding signal (fold retention over aPP phage),[11],10
same,binding signal (fold retention relative to PPBR4 phage),[12],0.1
